Assay [1] concerns the target MBP-PhtD fragment, amino acids 341 to 838 (Streptococcus pneumoniae TCH8431 …, UniProt A0A0H2UPR0, strain). Nature of the assay: ELISA.
Assay [2] addresses PhtD of pneumococcal strain TIGR4 (serotype 4), endogenous (Streptococcus pneumoniae TIGR4 …, UniProt A0A0H2UPR0). Nature of the assay: Western blot.
For assay [3], the target named is PhtD of pneumococcal strain TCH8431 (serotype 19A), endogenous (Streptococcus pneumoniae TCH8431 …, UniProt A0A0H2UPR0, strain). Nature of the assay: Western blot.

B1: human MAb PhtD7 (antibody, V domains shown)
VH: EVQLVQSGAEVKKPGASVKVSCKASGDIFSDSYIHWVRQAPGQGPEWMGWVSPNTGATHYAQKLQGRVTMTSDTSISTAYLELTRLASDDTAVYYCARVLRGSYDFRGNYPHDFDYWGQGTLVTVSS
VL: QLVLTQPPSASASLGASVTLTCTLSRGHNNYPIAWLQKQTDKGPRYVMRLNSDGSHHKGDGIPDRFSGSSSGAERYLSISSLQPEDEAEYYCQTWDTGLQGVFGGGTKLFVL
B1: in assay [1], the binding result is “binds”.

B2: human MAb PhtD3 (antibody, V domains shown)
VH: QVQLVQSGPDVKKPGSSVKVSCKASGAAFESFAFAWVRQAPGQGFEWMGRIIPILETRDYAEKFQGRMTMTTDESTATAYMELNSLRFEDTAVYFCARDGHIMRTTLSDAALDVWGQGTTVIVSS
VL: DIVMTQSPVTLSLSPGERATLSCRASQSLTDNYLAWYQQKPGQAPRLLIYAASTRATGIPDRISGSGSGTDFTLTISRVEPEDFAMFYCQQYQNSPFTFGGGTTVEIK
Consider B2, for which the binding result in assay [2] and in assay [3] was “binds” each time.

Values taken from article PMC8091081 (Infection and Immunity, 2021).
